Experimental findings from patent US20240034816A1 (Sanofi, published 2024) are described below.

Where “and” joins values, the source holds several entries; their conditions need not be identical. Identical values can stand only once.

The target in test [1] is T1, cynomolgus CD16 (cynomolgus, UniProt Q8SPW2 17-208).
T1 construct: also called CyFcyRIII
Put plainly: SPR, fit Two State Reaction, Exp No 3. Background: SPR reads the build-up and loss of mass on a sensor chip optically.

For test [2], the target named is T2, human CD16a (human FcγRIIIA), V isoform (human, UniProt P08637 17-208).
T2 construct: also called HuFcyRIIIaV; CD16a (V176)
Put plainly: SPR, fit Two State Reaction, Exp No 3.

For test [3], the target named is T3, human NKp46 on NK cells purified from PBMC of healthy donors (human, UniProt O76036 22-304).
T3 construct: whole, on cells; also called NKp46 on donor NK cells
Briefly: flow cytometry titration on resting human NK cells from healthy donors, detection with goat anti-human IgG Fcγ-PE, 4-parameter fit; NK cells also carry CD16a. Here is the method: (§1) After staining, cells were resuspended in BD Cellfix and analyzed by flow cytometry. Parameters were recorded and analysed with FlowJo software. Staining EC50 values were calculated with GraphPad prism using 4 parameter logistics non-linear regression model.
Background: In flow cytometry, cells or beads pass a laser one at a time.

Test [4] addresses T1, cynomolgus CD16. Briefly: SPR, fit Two State Reaction, mean of 3 experiments.
Test [5] concerns the target T2, human CD16a (human FcγRIIIA), V isoform. Briefly: SPR, fit Two State Reaction, mean of 3 experiments.
Test [6] deals with T4, human BCMA on RPMI 8226 multiple myeloma cells (human, UniProt Q02223 1-184).
T4 construct: whole, on cells; also called BCMA on RPMI cells
T4 sequence (looked up): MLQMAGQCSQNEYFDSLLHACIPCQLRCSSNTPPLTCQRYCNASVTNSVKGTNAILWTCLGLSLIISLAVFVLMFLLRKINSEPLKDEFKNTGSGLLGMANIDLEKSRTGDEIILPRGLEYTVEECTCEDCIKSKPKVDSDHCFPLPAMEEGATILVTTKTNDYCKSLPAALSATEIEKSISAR
Briefly: flow cytometry titration on RPMI 8226 cells, detection with goat anti-human IgG Fcγ-PE, 4-parameter fit; mean of 5 independent titrations. The procedure: as §1

Test [7] has as its target T5, recombinant human NKp46 extracellular domain (Gln22-Asn255) with C-terminal 6xHis tag (human, UniProt O76036 22-255).
T5 construct: range 22-255; also called huNKp46
Briefly: SPR (Biacore 8K), NKCE captured by anti-human Fc, antigen as analyte, 1:1 model; mean of 3 experiments. The procedure:
(§2) Measurements were performed in multicycle kinetics experiments for each antibody using a Biacore 8K instrument. In each multicycle experiment the antibodies were captured via an anti-hum a Fc antibody immobilized on a series S CM5 sensor chip (human antibody capture kit, Cytiva, Uppsala, Catalog No. BR1008-39).
(§3) The antigens, diluted as described above (concentration range 0.1 nM to 50 nM), were injected at a flow rate of 60 μL/min for 240 sec followed by a dissociation phase of 400 sec. All analyte concentrations were run in duplicate together with multiple buffer blanks for double referencing. Regeneration of the capture surface was performed with regeneration solution (3 mol/L MgCl2) for 60 sec at 30 μL/min. Binding kinetics data were evaluated with the Biacore 8K Evaluation Software version 1.1.1.7442 using a 1:1 binding model with mass transport limitation.

Another test concerns the target recombinant human BCMA (human, UniProt Q02223 1-54). The description is as above. The procedure:
as §2, §3

Test [8] addresses T6, recombinant cynomolgus NKp46 extracellular domain with C-terminal Flag-M2 tag (cynomolgus, UniProt Q95JB9 22-254).
T6 construct: range 22-254; also called cyno NKp46; not shown: C-terminal Flag-M2 tag
The description is as above. Here is the method:
as §2, §3

In another test the target is T7, cyno BCMA (PPB-17990) (cynomolgus, UniProt A0A2K5UD97 1-53).
T7 construct: also called cynomolgus BCMA
The test is described as above. Here is the method: as §2, §3

Another test addresses T8, human CD64 (human FcγRI) (human, UniProt P12314 16-292, limits assumed).
T8 construct: also called HuFcyRI
Briefly: SPR, fit 1:1 Binding, Exp No 3.

For another test, the target named is T9, cynomolgus CD32a (cynomolgus).
T9 construct: also called CyFcyRIIa
Put plainly: SPR, fit Steady State Affinity, Exp No 2.

Test [9] has as its target T10, human CD16b (human FcgRIIIB) (human, UniProt O75015 17-200, limits assumed).
T10 construct: also called HuFcyRIIIb
Put plainly: SPR, fit Steady State Affinity, Exp No 2.

Test [10] has as its target T11, human CD32b (human FcγRIIB) (human, UniProt P31994 43-217, limits assumed).
T11 construct: also called HuFcyRIIb
T11 sequence (looked up): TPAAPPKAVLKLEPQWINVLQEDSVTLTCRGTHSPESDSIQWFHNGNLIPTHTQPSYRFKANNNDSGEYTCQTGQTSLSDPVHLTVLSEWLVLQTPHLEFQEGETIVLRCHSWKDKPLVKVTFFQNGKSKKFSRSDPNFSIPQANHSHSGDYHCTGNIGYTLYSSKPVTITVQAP
Briefly: SPR, fit Steady State Affinity, Exp No 2.

Test [11] has as its target T3, human NKp46 on NK cells purified from …. Put plainly: flow cytometry titration on resting human NK cells from healthy donors, detection with goat anti-human IgG Fcγ-PE, 4-parameter fit; mean of 3 NK donors; NK cells also carry CD16a. The procedure: as §1
For test [12], the target named is T1, cynomolgus CD16. Briefly: SPR, fit Two State Reaction, Exp No 1.
For test [13], the target named is T2, human CD16a (human FcγRIIIA), V isoform. Briefly: SPR, fit Two State Reaction, Exp No 1.
For test [14], the target named is human neonatal Fc receptor (FcRn) (human, UniProt P55899 24-297; P61769 21-119). Briefly: SPR, binding to huFcRn at pH 6.0.
Sequence of human neonatal Fc receptor (FcRn) (P55899 24-297 limits assumed, chain 1 of 2): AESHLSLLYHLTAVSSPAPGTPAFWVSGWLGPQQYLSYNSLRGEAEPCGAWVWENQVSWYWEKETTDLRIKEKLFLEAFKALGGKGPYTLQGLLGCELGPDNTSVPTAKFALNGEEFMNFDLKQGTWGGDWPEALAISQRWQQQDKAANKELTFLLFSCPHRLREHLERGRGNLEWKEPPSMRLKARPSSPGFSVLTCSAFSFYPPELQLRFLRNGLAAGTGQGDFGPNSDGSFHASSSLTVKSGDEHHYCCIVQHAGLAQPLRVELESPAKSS
Sequence of human neonatal Fc receptor (FcRn) (P61769 21-119 limits assumed, chain 2 of 2): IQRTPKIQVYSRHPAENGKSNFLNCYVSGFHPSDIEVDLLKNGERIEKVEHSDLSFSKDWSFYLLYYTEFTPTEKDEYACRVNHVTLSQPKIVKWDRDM

T2 sequence (P08637 17-208 F176V limits assumed): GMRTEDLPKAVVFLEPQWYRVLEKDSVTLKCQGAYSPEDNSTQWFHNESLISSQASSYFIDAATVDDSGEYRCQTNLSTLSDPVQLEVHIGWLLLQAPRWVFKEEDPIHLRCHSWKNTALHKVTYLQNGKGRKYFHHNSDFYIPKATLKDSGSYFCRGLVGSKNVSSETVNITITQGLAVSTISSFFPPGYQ
T1 sequence (Q8SPW2 17-208): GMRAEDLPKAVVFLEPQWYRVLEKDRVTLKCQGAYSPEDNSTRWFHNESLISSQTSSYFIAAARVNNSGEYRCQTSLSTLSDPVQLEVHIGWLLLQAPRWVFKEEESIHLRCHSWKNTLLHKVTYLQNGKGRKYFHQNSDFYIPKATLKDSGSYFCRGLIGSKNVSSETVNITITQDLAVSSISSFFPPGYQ
T3 sequence (O76036 22-304): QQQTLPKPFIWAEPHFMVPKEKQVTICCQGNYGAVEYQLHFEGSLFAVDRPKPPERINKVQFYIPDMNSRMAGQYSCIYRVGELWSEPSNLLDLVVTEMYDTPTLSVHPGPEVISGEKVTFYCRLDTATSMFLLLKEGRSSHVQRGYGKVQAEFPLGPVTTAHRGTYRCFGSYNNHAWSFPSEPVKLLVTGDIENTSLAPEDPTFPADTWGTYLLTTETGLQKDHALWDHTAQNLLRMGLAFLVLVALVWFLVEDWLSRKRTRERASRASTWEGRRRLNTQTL
T5 sequence (O76036 other isoform, or with tags, fused parts or gaps limits assumed): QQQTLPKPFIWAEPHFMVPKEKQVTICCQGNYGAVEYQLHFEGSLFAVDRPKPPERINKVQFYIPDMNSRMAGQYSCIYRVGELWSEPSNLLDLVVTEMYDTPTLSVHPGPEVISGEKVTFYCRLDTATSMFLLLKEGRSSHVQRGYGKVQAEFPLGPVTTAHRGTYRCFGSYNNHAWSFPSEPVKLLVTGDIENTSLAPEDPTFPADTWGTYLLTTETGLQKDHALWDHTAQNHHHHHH
T10 sequence (O75015 17-200 limits assumed): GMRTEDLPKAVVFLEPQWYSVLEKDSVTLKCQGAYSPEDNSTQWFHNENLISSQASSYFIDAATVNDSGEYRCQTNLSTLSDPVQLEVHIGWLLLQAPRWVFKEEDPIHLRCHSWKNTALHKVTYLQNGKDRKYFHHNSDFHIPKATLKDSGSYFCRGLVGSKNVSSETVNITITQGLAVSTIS
T8 sequence (P12314 16-292 limits assumed): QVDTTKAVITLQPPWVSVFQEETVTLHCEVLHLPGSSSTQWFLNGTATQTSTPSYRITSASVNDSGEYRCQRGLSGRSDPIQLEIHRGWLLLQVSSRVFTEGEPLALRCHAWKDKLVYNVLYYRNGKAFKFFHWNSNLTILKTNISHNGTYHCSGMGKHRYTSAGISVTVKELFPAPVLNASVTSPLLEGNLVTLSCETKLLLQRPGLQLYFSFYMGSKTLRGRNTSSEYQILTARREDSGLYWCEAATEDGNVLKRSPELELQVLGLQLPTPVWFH
T6 sequence (Q95JB9 22-254): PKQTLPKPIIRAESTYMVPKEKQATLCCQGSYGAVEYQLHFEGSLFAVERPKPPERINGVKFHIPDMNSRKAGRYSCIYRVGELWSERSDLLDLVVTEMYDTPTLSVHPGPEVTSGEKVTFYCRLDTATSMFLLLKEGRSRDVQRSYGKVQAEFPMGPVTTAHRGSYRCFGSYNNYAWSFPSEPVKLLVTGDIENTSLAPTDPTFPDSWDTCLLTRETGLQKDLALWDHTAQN
T7 sequence (A0A2K5UD97 entry or part of it): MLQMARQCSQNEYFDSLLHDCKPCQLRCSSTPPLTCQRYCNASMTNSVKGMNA

B1: NKp46-BCMA_Fc-ADE-DSB NKCE (bispecific antibody, human IgG1, kappa)
light: QTVVTQEPSLTVSPGGTVTLTCASSTGTVTPSNYANWVQQKPGQAFRGLIGDNNSRPPGTPARFSASLLGGKAALTLSGVQPEDEAEYYCALWFGNQWVFGGGTKLTVLGGGGSGGGGSDIQMTQSPSSLSASVGDRVTITCRASQDISNYLNWYQQKPGKAPKLLIYYTSRLHSGVPSRFSGSGSGTDFTFTISSLQPEDIATYFCQQGNTRPWTFGGGTKVEIKGGGGSGGGGSRTVAAPSVFIFPPSDEQLKSGTASVVCLLNNFYPREAKVQWKVDNALQSGNSQESVTEQDSKDSTYSLSSTLTLSKADYEKHKVYACEVTHQGLSSPVTKSFNRGEC
heavy: QVQLVQSGAEVKKPGSSVKVSCKASGYTFSDYVINWVRQAPGQGLEWMGEIYPGSGTNYYNEKFKAKATITADKSTSTAYMELSSLRSEDTAVYYCARRGRYGLYAMDYWGQGTTVTVSSQVQLVESGGGVVQPGRSLRLSCAASGFTFSNFGMHWVRQAPGRGLEWVAVIWSDETNRYYADSVKGRFTVSRDNVKSTVYLQMNSLISEDTAVYYCARDQQYCSSDSCFTWFDPWGQGTLVTVSSASTKGPSVFPLAPSSKSTSGGTAALGCLVKDYFPEPVTVSWNSGALTSGVHTFPAVLQSSGLYSLSSVVTVPSSSLGTQTYICNVNHKPSNTKVDKKVEPKSCDKTHTCPPCPAPELLAGPDVFLFPPKPKDTLMISRTPEVTCVVVDVSHEDPEVKFNWYVDGVEVHNAKTKPCEEQYNSTYRCVSVLTVLHQDWLNGKEYKCKVSNKALPAPEEKTISKAKGQPREPQVYTLPPCRDELTKNQVSLWCLVKGFYPSDIAVEWESNGQPENNYKTTPPVLDSDGSFFLYSKLTVDKSRWQQGNVFSCSVMHEALHNHYTQKSLSLSPG
chain: DKTHTCPPCPAPELLAGPDVFLFPPKPKDTLMISRTPEVTCVVVDVSHEDPEVKFNWYVDGVEVHNAKTKPCEEQYNSTYRCVSVLTVLHQDWLNGKEYKCKVSNKALPAPEEKTISKAKGQPREPQVCTLPPSRDELTKNQVSLSCAVKGFYPSDIAVEWESNGQPENNYKTTPPVLDSDGSFFLVSKLTVDKSRWQQGNVFSCSVMHEALHNRFTQKSLSLSPG
As a reminder, the Kd is a measure of binding affinity in units of concentration. The EC50 is the concentration that produces a half-maximal response. Low readings indicate an effect from little substance, high ones a need for much substance. On to B1, for which the Kd is 15.7 nM with cynomolgus CD16 [1]; 16.5 nM in [2]; 11.7 nM with cynomolgus CD16 [4]; 13.4 nM in test [5]; 12.5 nM in [7]; 0.2 nM with recombinant human BCMA. In addition, the Kd in test [8] was determined as 16.9 nM; with cyno BCMA (PPB-17990), 0.3 nM; in the test with human CD64 (human FcγRI) it was 0.38 nM; in the test with cynomolgus CD32a, 1440 nM; in [9], 1690 nM; in test [10], 1060 nM. The Kd with cynomolgus CD16 [12] was determined as 10 nM; in [13] it was 11.7 nM; in test [14], 756 nM. The EC50 was 0.585 µg/mL and 0.863 µg/mL and 0.481 µg/mL in test [3]; 1.33 µg/mL in [6]; 0.643 µg/mL in test [11].
